# Data from patent EP0701605B2, “IMPROVED ENZYMES AND DETERGENTS CONTAINING THEM” (BASF SE, priority 1994, dated 1995).
# Positions count from the first letter of the chain named. Names may count otherwise.
# B1: Bacillus lentus DSM 5483 alkaline protease (BLAP) variant F54, S3T + V41 + R99G + A188P + V193M + V199I + L211D, SEQ ID NO:17 (Lederbergia lenta; … (protein)
# chain: AQTIPWGISRVQAPAAHNRGLTGSGVKVAVLDTGISTHPDLNIRGGASFVPGEPSTQDGNGHGTHVAGTIAALNNSIGVLGVAPSAELYAVKVLGADGGGAISSIAQGLEWAGNNGMHVANLSLGSPSPSATLEQAVNSATSRGVLVVAASGNSGASSISYPARYANAMAVGATDQNNNRASFSQYGPGLDIMAPGVNIQSTYPGSTYASDNGTSMATPHVAGAAALVKQKNPSWSNVQIRNHLKNTATSLGSTNLYGSGLVNAEAATR
# notes: made in house; host or cells: Bacillus subtilis DB104
# B2: Bacillus lentus DSM 5483 alkaline protease (BLAP) variant F11, S3T + R99S + A188P + V193M + V1991, SEQ ID NO:10 (Lederbergia lenta; A188P/R99S/S3T/V193M/V199I) (protein)
# chain: B1 chain with I4V, G99S, D211L
# notes: as for B1
# B3: Bacillus lentus DSM 5483 alkaline protease (BLAP) variant F47, S3T + V41 + S154D + A188P + V193M + V1991, SEQ ID NO:15 (Lederbergia lenta; … (protein)
# chain: B1 chain with G99R, S154D, D211L
# notes: as for B1
# B4: Bacillus lentus DSM 5483 alkaline protease (BLAP) variant F49, S3T + V4I + A188P + V193M + V1991 + L211D, SEQ ID NO:16 (Lederbergia lenta; … (protein)
# chain: B1 chain with G99R
# notes: as for B1
# B5: Bacillus lentus DSM 5483 alkaline protease (BLAP) variant F46, S3T + V41 + S154E + A188P + V193M + V1991, SEQ ID NO:14 (Lederbergia lenta; … (protein)
# chain: B1 chain with G99R, S154E, D211L
# notes: as for B1
# B6: Bacillus lentus DSM 5483 alkaline protease (BLAP) variant F44, S3T + V41 + R99A + A188P + V193M + V1991, SEQ ID NO:12 (Lederbergia lenta; … (protein)
# chain: B1 chain with G99A, D211L
# notes: as for B1
# B7: Bacillus lentus DSM 5483 alkaline protease (BLAP) variant F43, S3T + V41 + R99G + A188P + V193M + V1991, SEQ ID NO:11 (Lederbergia lenta; … (protein)
# chain: B1 chain with D211L
# notes: as for B1
# B8: Bacillus lentus DSM 5483 alkaline protease (BLAP) variant F55, S3T + V41 + S154E + A188P + V193M + V1991 + L211D, SEQ ID NO:18 (Lederbergia lenta; … (protein)
# chain: B1 chain with G99R, S154E
# notes: as for B1
# B9: Bacillus lentus DSM 5483 alkaline protease (BLAP) variant F45, S3T + V41 + R99S + A188P + V193M + V1991, SEQ ID NO:13 (Lederbergia lenta; … (protein)
# chain: B1 chain with G99S, D211L
# notes: as for B1
# B10: Bacillus lentus DSM 5483 alkaline protease (BLAP) variant M131, S3T + V41 + A188P + V193M + V1991, SEQ ID NO: 24 (Lederbergia lenta; A188P/S3T/V193M/V199I/V4I) (protein)
# chain: B1 chain with G99R, D211L
# notes: site-specific mutagenesis of DNA encoding the mature form of wild type BLAP; made in house; host or cells: Bacillus subtilis DB104
# Substrate: C[C@H](NC(=O)CCC(=O)O)C(=O)N[C@@H](C)C(=O)N1CCC[C@H]1C(=O)N[C@@H](Cc1ccccc1)C(=O)Nc1ccc([N+](=O)[O-])cc1
# Assay: AAPF-pNA assay, kinetic parameters
# Assay type: biochemical, Bacillus lentus DSM 5483
# Conditions: 100 mM Tris pH 8.6, 25°C
# Description: Two different protease assays were used. With the HPE method protease activity was established at a single concentration of casein as substrate. In the AAPF-pNA assay initial rates of succinyl-L-alanyl-L-alanyl-L-prolyi-L-phenylalanyl-p-nitroanilide (AAPF-pNA; Bachem Bioscience, Philadelphia, PA) supported catalysis were used to determine the kinetic parameters Km, kcat, and kcat/Km.
# Protease samples were diluted with 50% (v/v) 1,2-propanediol in 100 mM Tris, adjusted with 2 N HCl to pH 8.6 at 25°C ('Tris-propanediol buffer'), in which they were stable for at least 6 h at room temperature. A stock solution of 160 mM AAPF-pNA was prepared in dimethylsulfoxide dried over molecular sieve beads (Aldrich; 4 A, 4-8 mesh) for at least 24 h prior to use. Fixed point assays were performed at 25°C with 1.6 mM AAPF-pNA in 100 mM Tris, adjusted with 2 N HCl to pH 8.6 at 25°C, in a total volume of 1.020 ml. The substrate was added to the assay buffer 1 minute prior to the assay initiation and the reaction was started by addition of enzyme at a final concentration of 20 ng to 1.3 µg of protein per ml (0.75 to 48.5 nM enzyme) depending on specific activity. Release of p-nitroanilide was monitored at 410 nm, and a molar extinction coefficient of 8,480 M^-1cm^-1 was used to calculate amount and concentration of product formed (DelMar, E.G., Largman, C., Brodrick, J.W., and Geokas, M.C. (1979) Anal Biochem. 99, 316-320).
# Kinetic parameters were calculated from a velocity vs. substrate concentration plot constructed from initial rates measured once each at 12 different AAPF-pNA concentrations ranging from 0.16 to 3.2 mM. Data were fitted to a hyperbolic curve and proportionally weighted using the program ENZFITTER (Leatherbarrow, R.J. (1987) ENZFITTER. Biosoft, Cambridge, UK). A nominal molecular weight of 26.8 kDa was used in all calculations that required the interconversion of protein concentration and molarity of protease enzyme (Table 4).
# [1] = other: F54, AAPF-pNA 0.16 to 3.2 mM
# [2] = other: F11, AAPF-pNA 0.16 to 3.2 mM
# [3] = other: F47, AAPF-pNA 0.16 to 3.2 mM
# [4] = other: F49, AAPF-pNA 0.16 to 3.2 mM
# [5] = other: F46, AAPF-pNA 0.16 to 3.2 mM
# [6] = other: F44, AAPF-pNA 0.16 to 3.2 mM
# [7] = other: F43, AAPF-pNA 0.16 to 3.2 mM
# [8] = other: F55, AAPF-pNA 0.16 to 3.2 mM
# [9] = other: F45, AAPF-pNA 0.16 to 3.2 mM
# [10] = other: M131, AAPF-pNA 0.16 to 3.2 mM
protein,measurement,setting,value
B1,Km,[1],5500 µM
same,kcat,[1],7 s⁻¹
same,kcat/Km,[1],1300 M⁻¹ s⁻¹
B2,Km,[2],1880 µM
same,kcat,[2],174 s⁻¹
same,kcat/Km,[2],92000 M⁻¹ s⁻¹
B3,Km,[3],2000 µM
same,kcat,[3],249 s⁻¹
same,kcat/Km,[3],124000 M⁻¹ s⁻¹
B4,Km,[4],3500 µM
same,kcat,[4],38 s⁻¹
same,kcat/Km,[4],11000 M⁻¹ s⁻¹
B5,Km,[5],2000 µM
same,kcat,[5],358 s⁻¹
same,kcat/Km,[5],179000 M⁻¹ s⁻¹
B6,Km,[6],2490 µM
same,kcat,[6],257 s⁻¹
same,kcat/Km,[6],103000 M⁻¹ s⁻¹
B7,Km,[7],1730 µM
same,kcat,[7],171 s⁻¹
same,kcat/Km,[7],99000 M⁻¹ s⁻¹
B8,Km,[8],4300 µM
same,kcat,[8],11 s⁻¹
same,kcat/Km,[8],2600 M⁻¹ s⁻¹
B9,Km,[9],3050 µM
same,kcat,[9],208 s⁻¹
same,kcat/Km,[9],68000 M⁻¹ s⁻¹
B10,Km,[10],980 µM
same,kcat,[10],153 s⁻¹
same,kcat/Km,[10],156000 M⁻¹ s⁻¹
